Data taken from the array DNA melting data of Ke et al..

Assay: melting temperature; UV melt of duplexes

| Substance | Tm (sodium 0.07 M, strand 2 µM) [°C] | Tm (sodium 0.12 M, strand 2 µM) [°C] | Tm (sodium 0.22 M, strand 2 µM) [°C] | Tm (sodium 0.62 M, strand 2 µM) [°C] | Tm (sodium 1.02 M, strand 2 µM) [°C] | further results |
| --- | --- | --- | --- | --- | --- | --- |
| AAAAAAAAAGCTTTTTTTTT+AAAAAAAAAGCTTTTTTTTT ((((((((((((((((((((+)))))))))))))))))))) |  |  |  |  |  | Tm (sodium 0.12 M, strand 5 µM): 51 °C |
| AAAAAAAAGAATTCTTTTTTTT+AAAAAAAAGAATTCTTTTTTTT ((((((((((((((((((((((+)))))))))))))))))))))) |  |  |  |  |  | Tm (sodium 0.12 M, strand 6 µM): 49.9 °C |
| AAAAAAAGCTTTTTTT+AAAAAAAGCTTTTTTT ((((((((((((((((+)))))))))))))))) |  |  |  |  |  | Tm (sodium 0.12 M, strand 5 µM): 44 °C |
| AAAGTACATCAACATAGAGAATTGCATTTC+GAAATGCAATTCTCTATGTTGATGTACTTT ((((((((((((((((((((((((((((((+)))))))))))))))))))))))))))))) | 58.3 | 61.9 | 66.1 | 71.3 | 73.2 |  |
| AACCTGCAACATGGAGTTTTTGTCTCATGC+GCATGAGACAAAAACTCCATGTTGCAGGTT ((((((((((((((((((((((((((((((+)))))))))))))))))))))))))))))) | 64.5 | 68.3 | 72.5 | 77.7 | 78.7 |  |
| AACGCGCGTAGAGTAATTATAA+TTATAATTACTCTACGCGCGTT ((((((((((((((((((((((+)))))))))))))))))))))) |  |  |  |  |  | Tm (sodium 0.12 M, strand 6 µM): 65 °C |
| AACGCGCGTGAATTCTGGCCGCAA+TTGCGGCCAGAATTCACGCGCGTT ((((((((((((((((((((((((+)))))))))))))))))))))))) |  |  |  |  |  | Tm (sodium 0.12 M, strand 6 µM): 75.8 °C |
| AACGTGAATTCTGGCA+TGCCAGAATTCACGTT ((((((((((((((((+)))))))))))))))) |  |  |  |  |  | Tm (sodium 0.12 M, strand 7.4 µM): 58.3 °C |
| AAGGCGAGTCAGGCTCAGTG+CACTGAGCCTGACTCGCCTT ((((((((((((((((((((+)))))))))))))))))))) | 64.5 | 67.7 | 71.4 | 75.1 | 76.3 |  |
| AATATATATAGAGTGCGCGCAA+TTGCGCGCACTCTATATATATT ((((((((((((((((((((((+)))))))))))))))))))))) |  |  |  |  |  | Tm (sodium 0.12 M, strand 3.3 µM): 64.1 °C |
| AATATATGAATTCTAATTAA+TTAATTAGAATTCATATATT ((((((((((((((((((((+)))))))))))))))))))) |  |  |  |  |  | Tm (sodium 0.12 M, strand 6 µM): 44.7 °C |
| AATATATGATCATCGAT+ATCGATGATCATATATT (((((((((((((((((+))))))))))))))))) |  |  |  |  |  | Tm (sodium 0.12 M, strand 3 µM): 50 °C |
| AATATCTCTCATGCGCCAAGCTACA+TGTAGCTTGGCGCATGAGAGATATT (((((((((((((((((((((((((+))))))))))))))))))))))))) | 62.1 | 65.7 | 70.3 | 75.1 | 76.5 |  |
| ACAGCGAATGGACCTACGTGGCCTT+AAGGCCACGTAGGTCCATTCGCTGT (((((((((((((((((((((((((+))))))))))))))))))))))))) | 68.1 | 72.1 | 76 | 79.4 | 81 |  |
| ACCGACGACGCTGATCCGAT+ATCGGATCAGCGTCGTCGGT ((((((((((((((((((((+)))))))))))))))))))) | 66 | 69.1 | 72.6 | 76.8 | 77.3 |  |
| ACGGGTCCCCGCACCGCACCGCCAG+CTGGCGGTGCGGTGCGGGGACCCGT (((((((((((((((((((((((((+))))))))))))))))))))))))) | 76.8 | 79.9 | 84 | 87.1 | 88.3 |  |
| ACTGATTAGGATCCATATGTCA+TGACATATGGATCCTAATCAGT ((((((((((((((((((((((+)))))))))))))))))))))) |  |  |  |  |  | Tm (sodium 0.12 M, strand 5 µM): 58.3 °C |
| AGAAGGGAGAGAAAAAGAAA+TTTCTTTTTCTCTCCCTTCT ((((((((((((((((((((+)))))))))))))))))))) |  |  |  |  |  | Tm (sodium 1 M, strand 2 µM): 61.9 °C |
| AGCAAGTCGAGCAGGGCCTACGTTT+AAACGTAGGCCCTGCTCGACTTGCT (((((((((((((((((((((((((+))))))))))))))))))))))))) | 68.3 | 72.6 | 76.3 | 80 | 81.5 |  |
| AGTCTGGTCTGGATCTGAGAACTTCAGGCT+AGCCTGAAGTTCTCAGATCCAGACCAGACT ((((((((((((((((((((((((((((((+)))))))))))))))))))))))))))))) | 66.3 | 70.4 | 74.5 | 78.8 | 80.6 |  |
| ATAAAAATGAATTCATTTTTAT+ATAAAAATGAATTCATTTTTAT ((((((((((((((((((((((+)))))))))))))))))))))) |  |  |  |  |  | Tm (sodium 0.12 M, strand 7 µM): 52.8 °C |
| ATAACTTTACGTGTGTGACCTATTA+TAATAGGTCACACACGTAAAGTTAT (((((((((((((((((((((((((+))))))))))))))))))))))))) | 56.6 | 60.7 | 64.7 | 69.6 | 71.8 |  |
